Measured values reported in the Human Domainome abundance scans (Beltran et al. 2025).
± gives the uncertainty stated by the source.

B1: Transcription elongation regulator 1-like protein, residues 448 to 504; numbered along this chain, Q5VWI1 (parent)
chain: LPLEERVTHFRDMLLERGVSAFSTWEKELHKIVFDPRYLLLNSEERKQIFEQFVKTR

Variants of: B1
Assay: abundance fitness (aPCA) (normalised: wild type 0, dead -1); higher = more abundant; growth selection in yeast, the domain comes from the species named
Conditions: Homo sapiens

**Q.** Which abundance fitness does the source give for R11C here?
**A.** The abundance fitness was -0.5 ± 0.36.

**Q.** For R11D, which abundance fitness is on record?
**A.** The abundance fitness was -0.909 ± 0.16.

**Q.** For K47W, which abundance fitness is on record?
**A.** Its abundance fitness is -0.602 ± 0.37.

**Q.** For K47H, which abundance fitness is on record?
**A.** The abundance fitness was -0.109 ± 0.4.

**Q.** With F34L as the variant, how does the abundance fitness read?
**A.** Its abundance fitness is -0.019 ± 0.13.

**Q.** With F34C as the variant, how does the abundance fitness read?
**A.** Its abundance fitness is -0.104 ± 0.1.

**Q.** Which abundance fitness does the source give for F34R here?
**A.** Its abundance fitness is 0.099 ± 0.071.

**Q.** For E51P, which abundance fitness is on record?
**A.** The abundance fitness was -0.929 ± 0.13.

**Q.** For E51I, which abundance fitness is on record?
**A.** The abundance fitness was -0.632 ± 0.092.

**Q.** For E51H, which abundance fitness is on record?
**A.** Its abundance fitness is -0.077 ± 0.1.

**Q.** With E51N as the variant, how does the abundance fitness read?
**A.** Its abundance fitness is -0.147 ± 0.079.

**Q.** With I32A as the variant, how does the abundance fitness read?
**A.** Its abundance fitness is -0.909 ± 0.33.

**Q.** Which abundance fitness does the source give for A21G here?
**A.** The abundance fitness was -0.365 ± 0.094.

**Q.** With Y38V as the variant, how does the abundance fitness read?
**A.** Its abundance fitness is -0.767 ± 0.2.

**Q.** With Y38G as the variant, how does the abundance fitness read?
**A.** The abundance fitness was -0.786 ± 0.14.

**Q.** Which abundance fitness does the source give for Y38A here?
**A.** The abundance fitness was -0.815 ± 0.32.

**Q.** With L15C as the variant, how does the abundance fitness read?
**A.** The abundance fitness was -0.454 ± 0.17.

**Q.** For W25E, which abundance fitness is on record?
**A.** Its abundance fitness is -0.713 ± 0.21.

**Q.** For W25Q, which abundance fitness is on record?
**A.** Its abundance fitness is -0.751 ± 0.47.

**Q.** With W25A as the variant, how does the abundance fitness read?
**A.** The abundance fitness was -0.589 ± 0.09.

**Q.** Which abundance fitness does the source give for W25S here?
**A.** The abundance fitness was -0.55 ± 0.28.

**Q.** With L40V as the variant, how does the abundance fitness read?
**A.** Its abundance fitness is -0.877 ± 0.18.

**Q.** Which abundance fitness does the source give for E4R here?
**A.** The abundance fitness was -0.867 ± 0.2.

**Q.** For H30P, which abundance fitness is on record?
**A.** Its abundance fitness is 0.098 ± 0.2.

**Q.** With H30M as the variant, how does the abundance fitness read?
**A.** Its abundance fitness is -0.515 ± 0.46.

**Q.** Which abundance fitness does the source give for H30R here?
**A.** The abundance fitness was -0.295 ± 0.16.

**Q.** For H30C, which abundance fitness is on record?
**A.** Its abundance fitness is -0.569 ± 0.19.

**Q.** Which abundance fitness does the source give for H30V here?
**A.** Its abundance fitness is -0.608 ± 0.21.

**Q.** Which abundance fitness does the source give for K27E here?
**A.** The abundance fitness was -0.165 ± 0.092.

**Q.** For K27C, which abundance fitness is on record?
**A.** The abundance fitness was -0.032 ± 0.36.

**Q.** Which abundance fitness does the source give for K27T here?
**A.** The abundance fitness was -0.711 ± 0.35.

**Q.** For L3R, which abundance fitness is on record?
**A.** Its abundance fitness is 0.304 ± 0.07.

**Q.** For L3C, which abundance fitness is on record?
**A.** The abundance fitness was -0.857 ± 0.23.

**Q.** Which abundance fitness does the source give for L3G here?
**A.** Its abundance fitness is -0.214 ± 0.14.

**Q.** For L3D, which abundance fitness is on record?
**A.** The abundance fitness was -0.135 ± 0.23.

**Q.** With L41C as the variant, how does the abundance fitness read?
**A.** The abundance fitness was -0.734 ± 0.12.

**Q.** For L41V, which abundance fitness is on record?
**A.** The abundance fitness was -0.226 ± 0.077.

**Q.** Which abundance fitness does the source give for L41N here?
**A.** The abundance fitness was -0.755 ± 0.098.

**Q.** For L41Q, which abundance fitness is on record?
**A.** Its abundance fitness is -0.473 ± 0.21.

**Q.** For L41H, which abundance fitness is on record?
**A.** Its abundance fitness is -0.543 ± 0.091.

**Q.** For L41D, which abundance fitness is on record?
**A.** The abundance fitness was -1.04 ± 0.18.

**Q.** With M13W as the variant, how does the abundance fitness read?
**A.** The abundance fitness was -0.08 ± 0.31.

**Q.** With M13L as the variant, how does the abundance fitness read?
**A.** Its abundance fitness is -0.415 ± 0.12.

**Q.** For M13I, which abundance fitness is on record?
**A.** The abundance fitness was -0.623 ± 0.17.

**Q.** With M13V as the variant, how does the abundance fitness read?
**A.** The abundance fitness was -0.327 ± 0.13.

**Q.** For R37E, which abundance fitness is on record?
**A.** The abundance fitness was -0.917 ± 0.4.

**Q.** Which abundance fitness does the source give for T24C here?
**A.** Its abundance fitness is 0.197 ± 0.41.

**Q.** Which abundance fitness does the source give for T24R here?
**A.** Its abundance fitness is -0.701 ± 0.21.

**Q.** Which abundance fitness does the source give for T24P here?
**A.** The abundance fitness was -0.571 ± 0.21.

**Q.** For D12Y, which abundance fitness is on record?
**A.** The abundance fitness was -0.112 ± 0.34.

**Q.** For D12N, which abundance fitness is on record?
**A.** The abundance fitness was -0.26 ± 0.26.

**Q.** For D12M, which abundance fitness is on record?
**A.** The abundance fitness was 0.191 ± 0.12.

**Q.** With D12I as the variant, how does the abundance fitness read?
**A.** Its abundance fitness is -0.177 ± 0.33.

**Q.** For D12K, which abundance fitness is on record?
**A.** The abundance fitness was -0.119 ± 0.1.

**Q.** Which abundance fitness does the source give for D12Q here?
**A.** Its abundance fitness is -0.223 ± 0.24.

**Q.** Which abundance fitness does the source give for Q48A here?
**A.** The abundance fitness was -0.036 ± 0.16.

**Q.** Which abundance fitness does the source give for Q48L here?
**A.** The abundance fitness was -0.082 ± 0.12.

**Q.** Which abundance fitness does the source give for Q48D here?
**A.** Its abundance fitness is 0.297 ± 0.2.

**Q.** Which abundance fitness does the source give for Q48R here?
**A.** The abundance fitness was -0.165 ± 0.098.

**Q.** For K55P, which abundance fitness is on record?
**A.** Its abundance fitness is -1.19 ± 0.5.

**Q.** With K55S as the variant, how does the abundance fitness read?
**A.** The abundance fitness was -0.04 ± 0.11.

**Q.** Which abundance fitness does the source give for K55H here?
**A.** The abundance fitness was -0.218 ± 0.32.

**Q.** For F50G, which abundance fitness is on record?
**A.** The abundance fitness was -0.759 ± 0.22.

**Q.** Which abundance fitness does the source give for F50R here?
**A.** Its abundance fitness is -0.714 ± 0.14.

**Q.** For F50A, which abundance fitness is on record?
**A.** Its abundance fitness is -0.887 ± 0.2.

**Q.** With S43W as the variant, how does the abundance fitness read?
**A.** The abundance fitness was -0.424 ± 0.11.

**Q.** For S43L, which abundance fitness is on record?
**A.** Its abundance fitness is -0.065 ± 0.094.

**Q.** For S43K, which abundance fitness is on record?
**A.** The abundance fitness was -0.145 ± 0.13.

**Q.** With N42A as the variant, how does the abundance fitness read?
**A.** Its abundance fitness is -0.571 ± 0.33.

**Q.** For N42P, which abundance fitness is on record?
**A.** The abundance fitness was -0.533 ± 0.26.

**Q.** With N42K as the variant, how does the abundance fitness read?
**A.** Its abundance fitness is -0.109 ± 0.13.

**Q.** With V7T as the variant, how does the abundance fitness read?
**A.** Its abundance fitness is -0.34 ± 0.094.

**Q.** With V7M as the variant, how does the abundance fitness read?
**A.** The abundance fitness was 0.434 ± 0.21.

**Q.** For V7S, which abundance fitness is on record?
**A.** Its abundance fitness is -0.334 ± 0.24.

**Q.** With V7Y as the variant, how does the abundance fitness read?
**A.** The abundance fitness was -0.075 ± 0.35.

**Q.** For V7F, which abundance fitness is on record?
**A.** The abundance fitness was 0.022 ± 0.14.

**Q.** With E45Q as the variant, how does the abundance fitness read?
**A.** Its abundance fitness is -0.004 ± 0.12.

**Q.** With E45W as the variant, how does the abundance fitness read?
**A.** Its abundance fitness is -0.483 ± 0.26.

**Q.** With G18A as the variant, how does the abundance fitness read?
**A.** Its abundance fitness is -0.588 ± 0.12.

**Q.** With E5G as the variant, how does the abundance fitness read?
**A.** The abundance fitness was -0.195 ± 0.19.

**Q.** With E5Q as the variant, how does the abundance fitness read?
**A.** The abundance fitness was -0.357 ± 0.31.

**Q.** Which abundance fitness does the source give for E5Y here?
**A.** The abundance fitness was -0.483 ± 0.24.

**Q.** For E5C, which abundance fitness is on record?
**A.** Its abundance fitness is -0.303 ± 0.12.
